Source: patent US20200032346

Legend:
[1] = molecular target: HisTAG-EGFR^aa1-650, P00533
[2] = molecular target: HisTAG-ΔEGFR N-terminusY88A, P00533
[3] = molecular target: T1, mutant peptide 3 (FLKTIQEVAGAVLIALNTVER)
T1 chain: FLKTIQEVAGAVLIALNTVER

[4] = molecular target: T2, peptide 1 (EVVLGNLEITYVQRNYDLSFL)
T2 chain: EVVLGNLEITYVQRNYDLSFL

[5] = molecular target: T3, peptide 10 (QMDVNPEGKYSFGATCVKK)
T3 chain: QMDVNPEGKYSFGATCVKK

[6] = molecular target: T4, peptide 11 (ATCVKKCPRNYVVTDHGSCVR)
T4 chain: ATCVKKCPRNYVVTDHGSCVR

[7] = molecular target: T5, peptide 12 (SCVRACGADSYEMEEDGVRKC)
T5 chain: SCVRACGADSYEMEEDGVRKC

[8] = molecular target: T6, peptide 13 (VIISGNKNLCYANTINWKKLF)
T6 chain: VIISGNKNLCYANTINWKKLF

[9] = molecular target: T7, peptide 14 (GPDNCIQCAHYIDGPHCVKTC)
T7 chain: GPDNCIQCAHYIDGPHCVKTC

[10] = molecular target: T8, peptide 15 (MGENNTLVWKYADAGHVCHLC)
T8 chain: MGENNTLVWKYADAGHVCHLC

[11] = molecular target: T9, peptide 16 (VCHLCHPNCTYGCTGPGLEGC)
T9 chain: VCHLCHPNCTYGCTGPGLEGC

[12] = molecular target: T10, peptide 2 (NLEITYVQRNYDLSFLKTIQE)
T10 chain: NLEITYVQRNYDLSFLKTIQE

[13] = molecular target: T11, peptide 3 (FLKTIQEVAGYVLIALNTVER)
T11 chain: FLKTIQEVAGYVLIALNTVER

[14] = molecular target: T12, peptide 4 (ENLQIIRGNMYYENSYALAVL)
T12 chain: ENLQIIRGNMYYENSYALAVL

[15] = molecular target: T13, peptide 5 (NLQIIRGNMYYENSYALAVLS)
T13 chain: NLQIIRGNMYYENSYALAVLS

[16] = molecular target: T14, peptide 6 (IRGNMYYENSYALAVLSNYDA)
T14 chain: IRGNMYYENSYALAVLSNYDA

[17] = molecular target: T15, peptide 7 (NSYALAVLSNYDANKTGLKEL)
T15 chain: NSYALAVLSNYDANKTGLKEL

[18] = molecular target: T16, peptide 8 (CKDTCPPLMLYNPTTYQMDVN)
T16 chain: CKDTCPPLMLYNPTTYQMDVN

[19] = molecular target: T17, peptide 9 (PPLMLYNPTTYQMDVNPEGKY)
T17 chain: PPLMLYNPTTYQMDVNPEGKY

B1: GST-MAN2A1-FER (protein)
chain: MKLSRQFTVFGSAIFCVVIFSLYLMLDRGHLDYPRNPRREGSFPQGQLSMLQEKIDHLERLLAENNEIISNIRDSVINLSESVEDGPKSSQSNFSQGAGSHLLPSQLSLSVDTADCLFASQSGSHNSDVQMLDVYSLISFDNPDGGVWKQGFDITYESNEWDTEPLQVFVVPHSHNDPGWLKTFNDYFRDKTQYIFNNMVLKLKEDSRRKFIWSEISYLSKWWDIIDIQKKDAVKSLIENGQLEIVTGGWVMPDEATPHYFALIDQLIEGHQWLENNIGVKPRSGWAIDPFGHSPTMAYLLNRAGLSHMLIQRVHYAVKKHFALHKTLEFFWRQNWDLGSVTDILCHMMPFYSYDIPHTCGPDPKICCQFDFKRLPGGRFGCPWGVPPETIHPGNVQSRARMLLDQYRKKSKLFRTKVLLAPLGDDFRYCEYTEWDLQFKNYQQLFDYMNSQSKFKVKIQFGTLSDFFDALDKADETQRDKGQSMFPVLSGDFFTYADRDDHYWSGYFTSRPFYKRMDRIMESHLRAAEILYYFALRQAHKYKINKFLSSSLYTALTEARRNLGLFQHHDAITGTAKDWVVVDYGTRLFHSLMVLEKIIGNSAFLLILKDKLTYDSYSPDTFLEMDLKQKSQDSLPQKNIIRLSAEPRYLVVYNPLEQDRISLVSVYVSSPTVQVFSASGKPVEVQVSAVWDTANTISETAYEGNFGEVYKGTLKDKTSVAVKTCKEDLPQELKIKFLQEAKILKQYDHPNIVKLIGVCTQRQPVYIIMELVSGGDFLTFLRRKKDELKLKQLVKFSLDAAAGMLYLESKNCIHRDLAARNCLVGENNVLKISDFGMSRQEDGGVYSSSGLKQIPIKWTAPEALNYGRYSSESDVWSFGILLWETFSLGVCPYPGMTNQQAREQVERGYRMSAPQHCPEDISKIMMKCWDYKPENRPKFSELQKELTIIKRKLT
in vitro kinase assay, phosphorylation of the substrate [1]: GST-MAN2A1-FER phosphorylated the recombinant HisTAG-EGFR^aa1-650 in an ATP dosage-dependent manner | in vitro kinase assay, phosphorylation of the substrate [2]: No phosphorylation was found when Y88 was mutated to alanine in EGFR N-terminus | phosphorylation assay on synthetic peptide [3]: mutant peptide was not phosphorylated by the fusion protein | phosphorylation of HisTAG-ΔEGFR^aa1-650 by GST-MAN2A1-FER with an excessive amount of peptide [3]: peptide 3, but not the mutant counterpart, partially blocked the phosphorylation of EGFR N-terminus by GST-MAN2A1-FER | phosphorylation assay on synthetic peptide [4]: only the sequence corresponding to FLKTIQEVAGYVLIALNTVER (peptide 3) in EGFR was phosphorylated by GST-MAN2A1-FER | phosphorylation assay on synthetic peptide [5]: only the sequence corresponding to FLKTIQEVAGYVLIALNTVER (peptide 3) in EGFR was phosphorylated by GST-MAN2A1-FER | phosphorylation assay on synthetic peptide [6]: only the sequence corresponding to FLKTIQEVAGYVLIALNTVER (peptide 3) in EGFR was phosphorylated by GST-MAN2A1-FER | phosphorylation assay on synthetic peptide [7]: only the sequence corresponding to FLKTIQEVAGYVLIALNTVER (peptide 3) in EGFR was phosphorylated by GST-MAN2A1-FER | phosphorylation assay on synthetic peptide [8]: only the sequence corresponding to FLKTIQEVAGYVLIALNTVER (peptide 3) in EGFR was phosphorylated by GST-MAN2A1-FER | phosphorylation assay on synthetic peptide [9]: only the sequence corresponding to FLKTIQEVAGYVLIALNTVER (peptide 3) in EGFR was phosphorylated by GST-MAN2A1-FER | phosphorylation assay on synthetic peptide [10]: only the sequence corresponding to FLKTIQEVAGYVLIALNTVER (peptide 3) in EGFR was phosphorylated by GST-MAN2A1-FER | phosphorylation assay on synthetic peptide [11]: only the sequence corresponding to FLKTIQEVAGYVLIALNTVER (peptide 3) in EGFR was phosphorylated by GST-MAN2A1-FER | phosphorylation assay on synthetic peptide [12]: only the sequence corresponding to FLKTIQEVAGYVLIALNTVER (peptide 3) in EGFR was phosphorylated by GST-MAN2A1-FER | phosphorylation assay on synthetic peptide [13]: only the sequence corresponding to FLKTIQEVAGYVLIALNTVER (peptide 3) in EGFR was phosphorylated by GST-MAN2A1-FER | phosphorylation of HisTAG-ΔEGFR^aa1-650 by GST-MAN2A1-FER with an excessive amount of peptide [13]: peptide 3, but not the mutant counterpart, partially blocked the phosphorylation of EGFR N-terminus by GST-MAN2A1-FER | phosphorylation assay on synthetic peptide [14]: only the sequence corresponding to FLKTIQEVAGYVLIALNTVER (peptide 3) in EGFR was phosphorylated by GST-MAN2A1-FER | phosphorylation assay on synthetic peptide [15]: only the sequence corresponding to FLKTIQEVAGYVLIALNTVER (peptide 3) in EGFR was phosphorylated by GST-MAN2A1-FER | phosphorylation assay on synthetic peptide [16]: only the sequence corresponding to FLKTIQEVAGYVLIALNTVER (peptide 3) in EGFR was phosphorylated by GST-MAN2A1-FER | phosphorylation assay on synthetic peptide [17]: only the sequence corresponding to FLKTIQEVAGYVLIALNTVER (peptide 3) in EGFR was phosphorylated by GST-MAN2A1-FER | phosphorylation assay on synthetic peptide [18]: only the sequence corresponding to FLKTIQEVAGYVLIALNTVER (peptide 3) in EGFR was phosphorylated by GST-MAN2A1-FER | phosphorylation assay on synthetic peptide [19]: only the sequence corresponding to FLKTIQEVAGYVLIALNTVER (peptide 3) in EGFR was phosphorylated by GST-MAN2A1-FER
